For experiment [1], the system named is WT MEF EVs. Briefly: Quantitative LC-MS/MS proteomics of EVs from ISRIB-treated WT MEF cultures. The experiment is classed as cell-based, mouse. The note with it: EV protein abundance; for WT + ISRIB/WT Cohen's d: ISRIB-treated WT vs WT; for ISRIB and DYT Parallel Direction: WT + ISRIB vs WT, direction compared with DYT/WT. Details: key to ISRIB and DYT Parallel Direction / ISRIB and DYT Parallel Direction, Ctdsp1 / ISRIB and DYT Parallel Direction, Pcdh19 / ISRIB and DYT Parallel Direction, Tspan7 / ISRIB and DYT Parallel Direction, Myo1e / ISRIB and DYT Parallel Direction, Plpp3 / ISRIB and DYT Parallel Direction, Sh3bp4 / ISRIB and DYT Parallel Direction, Dnajc7 / ISRIB and DYT Parallel Direction, Drg1 / ISRIB and DYT Parallel Direction, Maea: YES = protein abundance effect similar to DYT/WT.

Experiment [2] deals with DYT-TOR1A MEF EVs. Briefly: Quantitative LC-MS/MS proteomics of EVs from drug-treated DYT-TOR1A MEF cultures (ritonavir, salubrinal). The class given is cell-based, mouse. The note with it: EV protein abundance; for RTV Corrective Direction: DYT + RTV (ritonavir) vs DYT, direction compared with DYT/WT; for DYT + RTV/DYT Cohen's d: ritonavir (RTV)-treated DYT vs DYT. Details: key to RTV Corrective Direction / RTV Corrective Direction, Grwd1 / RTV Corrective Direction, Srrm2 / RTV Corrective Direction, Rbm17 / RTV Corrective Direction, Dcaf8 / RTV Corrective Direction, Edil3 / RTV Corrective Direction, Timp3 / RTV Corrective Direction, Heatr3 / RTV Corrective Direction, Brd4 / RTV Corrective Direction, P3h4 / RTV Corrective Direction, Pacsin3 / RTV Corrective Direction, Naa50 / RTV Corrective Direction, Lpar6 / RTV Corrective Direction, Ndrg1 / RTV Corrective Direction, Kntc1 / RTV Corrective Direction, Cdk11b / RTV Corrective Direction, Sumo1 / RTV Corrective Direction, Lsm4 / RTV Corrective Direction, Hmga2 / RTV Corrective Direction, Cstf1 / RTV Corrective Direction, Tes / RTV Corrective Direction, Sbno1 / RTV Corrective Direction, Unc119b / RTV Corrective Direction, Cfdp1 / RTV Corrective Direction, Sec61b: YES = protein abundance effect opposite to DYT/WT.

The values that follow come from patent US20260266848A1, “COMPOSITIONS AND METHODS FOR DIAGNOSING AND TREATING DYSTONIA” (Duke University, priority 2023, published 2026).

B1: Fh (protein, UniProt P97807 42-507, looked up)
Fumarate hydratase, …: ASQNSFRVEFDTFGELKVPTDKYYGAQTVRSTMNFKIGGATERMPIPVIQAFGILKRAAAEVNQEYGLDPKIASAIMKAADEVAEGKLNDHFPLVVWQTGSGTQTNMNVNEVISNRAIEMLGGELGSKKPVHPNDHVNKSQSSNDTFPTAMHIAAAVEVHKVLLPGLQKLHDALSAKSKEFAQVIKIGRTHTQDAVPLTLGQEFSGYVQQVQYAMVRIKAAMPRIYELAAGGTAVGTGLNTRIGFAEKVAAKVAALTGLPFVTAPNKFEALAAHDALVELSGAMNTAACSLMKIANDIRFLGSGPRSGLGELILPENEPGSSIMPGKVNPTQCEAMTMVAAQVMGNHVAVTVGGSNGHFELNVFKPMMIKNVLHSARLLGDASVSFTDNCVVGIQANTERINKLMNESLMLVTALNPHIGYDKAAKIAKTAHKNGSTLKETAIELGYLTAEQFDEWVKPKDMLGPK
For the molecule B1, in experiment [1], the “WT + ISRIB/WT Cohen's d” value was −0.28; the “ISRIB and DYT Parallel Direction” value is on record as “YES”. Further, in experiment [2], the “RTV Corrective Direction” value is recorded as “YES” and the “DYT + RTV/DYT Cohen's d” value is listed as 2.12.

B2: Ptk2 (protein, UniProt P34152 2-1052, looked up)
Focal adhesion kinase 1: AAAYLDPNLNHTPSSSTKTHLGTGMERSPGAMERVLKVFHYFESSSEPTTWASIIRHGDATDVRGIIQKIVDSHKVKHVACYGFRLSHLRSEEVHWLHVDMGVSSVREKYELAHPPEEWKYELRIRYLPKGFLNQFTEDKPTLNFFYQQVKSDYMQEIADQVDQEIALKLGCLEIRRSYWEMRGNALEKKSNYEVLEKDVGLKRFFPKSLLDSVKAKTLRKLIQQTFRQFANLNREESILKFFEILSPVYRFDKECFKCALGSSWIISVELAIGPEEGISYLTDKGCNPTHLADFNQVQTIQYSNSEDKDRKGMLQLKIAGAPEPLTVTAPSLTIAENMADLIDGYCRLVNGATQSFIIRPQKEGERALPSIPKLANSEKQGMRTHAVSVSETDDYAEIIDEEDTYTMPSTRDYEIQRERIELGRCIGEGQFGDVHQGVYLSPENPALAVAIKTCKNCTSDSVREKFLQEALTMRQFDHPHIVKLIGVITENPVWIIMELCTLGELRSFLQVRKYSLDLASLILYAYQLSTALAYLESKRFVHRDIAARNVLVSSNDCVKLGDFGLSRYMEDSTYYKASKGKLPIKWMAPESINFRRFTSASDVWMFGVCMWEILMHGVKPFQGVKNNDVIGRIENGERLPMPPNCPPTLYSLMTKCWAYDPSRRPRFTELKAQLSTILEEEKVQQEERMRMESRRQATVSWDSGGSDEAPPKPSRPGYPSPRSSEGFYPSPQHMVQTNHYQVSGYPGSHGIPAMAGSIYQGQASLLDQTELWNHRPQEMSMWQPSVEDSAALDLRGMGQVLPPHLMEERLIRQQQEMEEDQRWLEKEERFLKPDVRLSRGSIDREDGSFQGPTGNQHIYQPVGKPDPAAPPKKPPRPGAPGHLSNLSSISSPADSYNEGVKLQPQEISPPPTANLDRSNDKVYENVTGLVKAVIEMSSKIQPAPPEEYVPMVKEVGLALRTLLATVDETIPALPASTHREIEMAQKLLNSDLGELISKMKLAQQYVMTSLQQEYKKQMLTAAHALAVDAKNLLDVIDQARLKMLGQTRPH
B2: in experiment [1], the “WT + ISRIB/WT Cohen's d” value is listed as −3.26; the “ISRIB and DYT Parallel Direction” value was “YES”. Further, in experiment [2], the “RTV Corrective Direction” value is listed as “YES” and the “DYT + RTV/DYT Cohen's d” value is recorded as 0.10.

B3: Alad (protein, UniProt P10518 1-330, looked up)
Delta-aminolevulinic acid …: MHHQSVLHSGYFHPLLRSWQTAASTVSASNLIYPIFVTDVPDDVQPIASLPGVARYGVNQLEEMLRPLVEAGLRCVLIFGVPSRVPKDEQGSAADSEDSPTIEAVRLLRKTFPSLLVACDVCLCPYTSHGHCGLLSENGAFLAEESRQRLAEVALAYAKAGCQVVAPSDMMDGRVEAIKAALLKHGLGNRVSVMSYSAKFASCFYGPFRDAAQSSPAFGDRRCYQLPPGARGLALRAVARDIQEGADMLMVKPGLPYLDMVREVKDKHPELPLAVYQVSGEFAMLWHGAQAGAFDLRTAVLETMTAFRRAGADIIITYFAPQLLKWLKEE
B3: in experiment [1], the “WT + ISRIB/WT Cohen's d” value was −1.50; the “ISRIB and DYT Parallel Direction” value is on record as “YES”. For the same molecule, in experiment [2], the “RTV Corrective Direction” value is recorded as “YES” and the “DYT + RTV/DYT Cohen's d” value is 1.57.

B4: Pdia3 (protein, UniProt P27773 25-505, looked up)
Protein disulfide-isomerase A3: SDVLELTDENFESRVSDTGSAGLMLVEFFAPWCGHCKRLAPEYEAAATRLKGIVPLAKVDCTANTNTCNKYGVSGYPTLKIFRDGEEAGAYDGPRTADGIVSHLKKQAGPASVPLRTEEEFKKFISDKDASVVGFFRDLFSDGHSEFLKAASNLRDNYRFAHTNIESLVKEYDDNGEGITIFRPLHLANKFEDKTVAYTEKKMTSGKIKKFIQDSIFGLCPHMTEDNKDLIQGKDLLTAYYDVDYEKNAKGSNYWRNRVMMVAKKFLDAGHKLNFAVASRKTFSHELSDFGLESTTGEVPVVAIRTAKGEKFVMQEEFSRDGKALEQFLQEYFDGNLKRYLKSEPIPESNEGPVKVVVAENFDDIVNEEDKDVLIEFYAPWCGHCKNLEPKYKELGEKLSKDPNIVIAKMDATANDVPSPYEVKGFPTIYFSPANKKLTPKKYEGGRELNDFISYLQREATNPPIIQEEKPKKKKKAQEDL
As for B4, in experiment [1], the “WT + ISRIB/WT Cohen's d” value is 0.39; the “ISRIB and DYT Parallel Direction” value is “YES”. Moreover, in experiment [2], the “RTV Corrective Direction” value was “YES” and the “DYT + RTV/DYT Cohen's d” value was 0.37.

B5: Dbi (protein, UniProt P31786 2-87, looked up)
Acyl-CoA-binding protein: SQAEFDKAAEEVKRLKTQPTDEEMLFIYSHFKQATVGDVNTDRPGLLDLKGKAKWDSWNKLKGTSKESAMKTYVEKVDELKKKYGI
For B5, in experiment [1], the “WT + ISRIB/WT Cohen's d” value is reported as −2.44; the “ISRIB and DYT Parallel Direction” value was “YES”. Also, in experiment [2], the “RTV Corrective Direction” value is reported as “YES” and the “DYT + RTV/DYT Cohen's d” value was 0.91.

B6: Adamts5 (protein, UniProt Q9R001 262-930, looked up)
A disintegrin and …: SISRARQVELLLVADSSMARMYGRGLQHYLLTLASIANRLYSHASIENHIRLAVVKVVVLTDKDTSLEVSKNAATTLKNFCKWQHQHNQLGDDHEEHYDAAILFTREDLCGHHSCDTLGMADVGTICSPERSCAVIEDDGLHAAFTVAHEIGHLLGLSHDDSKFCEENFGTTEDKRLMSSILTSIDASKPWSKCTSATITEFLDDGHGNCLLDLPRKQILGPEELPGQTYDATQQCNLTFGPEYSVCPGMDVCARLWCAVVRQGQMVCLTKKLPAVEGTPCGKGRVCLQGKCVDKTKKKYYSTSSHGNWGSWGPWGQCSRSCGGGVQFAYRHCNNPAPRNSGRYCTGKRAIYRSCSVTPCPPNGKSFRHEQCEAKNGYQSDAKGVKTFVEWVPKYAGVLPADVCKLTCRAKGTGYYVVFSPKVTDGTECRPYSNSVCVRGRCVRTGCDGIIGSKLQYDKCGVCGGDNSSCTKIIGTFNKKSKGYTDVVRIPEGATHIKVRQFKAKDQTRFTAYLALKKKTGEYLINGKYMISTSETIIDINGTVMNYSGWSHRDDFLHGMGYSATKEILIVQILATDPTKALDVRYSFFVPKKTTQKVNSVISHGSNKVGPHSTQLQWVTGPWLACSRTCDTGWHTRTVQCQDGNRKLAKGCLLSQRPSAFKQCLLKKC
B6: in experiment [1], the “WT + ISRIB/WT Cohen's d” value was −2.06; the “ISRIB and DYT Parallel Direction” value is recorded as “YES”. For the same molecule, in experiment [2], the “RTV Corrective Direction” value was “YES” and the “DYT + RTV/DYT Cohen's d” value was determined as 0.76.

B7: Cyb5r3 (protein, UniProt Q9DCN2 2-301, looked up)
NADH-cytochrome b5 reductase 3: GAQLSTLSHVVLSPVWFIYSLFMKLFQRSTPAITLENPDIKYPLRLIDKEVISPDTRRFRFALPSPQHILGLPIGQHIYLSTRIDGNLVIRPYTPVSSDDDKGFVDLVVKVYFKDTHPKFPAGGKMSQYLENMKIGDTIEFRGPNGLLVYQGKGKFAIRADKKSNPVVRTVKSVGMIAGGTGITPMLQVIRAVLKDPNDHTVCYLLFANQSEKDILLRPELEELRNEHSARFKLWYTVDKAPDAWDYSQGFVNEEMIRDHLPTPGEEPLILMCGPPPMIQFACLPNLERVGHPKERCFTF
Turning to B7, in experiment [1], the “WT + ISRIB/WT Cohen's d” value is recorded as 0.64; the “ISRIB and DYT Parallel Direction” value is listed as “YES”. For the same molecule, in experiment [2], the “RTV Corrective Direction” value is “YES” and the “DYT + RTV/DYT Cohen's d” value amounted to 0.64.

B8: Atg7 (protein, UniProt Q9D906 1-698, looked up)
Ubiquitin-like …: MGDPGLAKLQFAPFNSALDVGFWHELTQKKLNEYRLDEAPKDIKGYYYNGDSAGLPTRLTLEFSAFDMSASTPAHCCPAMGTLHNTNTLEAFKTADKKLLLEQSANEIWEAIKSGAALENPMLLNKFLLLTFADLKKYHFYYWFCCPALCLPESIPLIRGPVSLDQRLSPKQIQALEHAYDDLCRAEGVTALPYFLFKYDDDTVLVSLLKHYSDFFQGQRTKITVGVYDPCNLAQYPGWPLRNFLVLAAHRWSGSFQSVEVLCFRDRTMQGARDVTHSIIFEVKLPEMAFSPDCPKAVGWEKNQKGGMGPRMVNLSGCMDPKRLAESSVDLNLKLMCWRLVPTLDLDKVVSVKCLLLGAGTLGCNVARTLMGWGVRHVTFVDNAKISYSNPVRQPLYEFEDCLGGGKPKALAAAERLQKIFPGVNARGFNMSIPMPGHPVNFSDVTMEQARRDVEQLEQLIDNHDVIFLLMDTRESRWLPTVIAASKRKLVINAALGFDTFVVMRHGLKKPKQQGAGDLCPSHLVAPADLGSSLFANIPGYKLGCYFCNDVVAPGDSTRDRTLDQQCTVSRPGLAVIAGALAVELMVSVLQHPEGGYAIASSSDDRMNEPPTSLGLVPHQIRGFLSRFDNVLPVSLAFDKCTACSPKVLDQYEREGFTFLAKVFNSSHSFLEDLTGLTLLHQETQAAEIWDMSDEETV
For the molecule B8, in experiment [1], the “WT + ISRIB/WT Cohen's d” value is listed as −2.35; the “ISRIB and DYT Parallel Direction” value is “YES”. Moreover, in experiment [2], the “RTV Corrective Direction” value is “YES” and the “DYT + RTV/DYT Cohen's d” value turned out to be 0.61.
